From patent publication US20160222458A1 (AGENCY FOR SCIENCE TECHNOLOGY AND RESEARCH, published 2016) come the findings set out here.

This assay deals with T1, Aurora kinase A (AURKA) (UniProt O14965 1-403).
T1 construct: also called AURKA-A; STK6
T1 sequence (looked up): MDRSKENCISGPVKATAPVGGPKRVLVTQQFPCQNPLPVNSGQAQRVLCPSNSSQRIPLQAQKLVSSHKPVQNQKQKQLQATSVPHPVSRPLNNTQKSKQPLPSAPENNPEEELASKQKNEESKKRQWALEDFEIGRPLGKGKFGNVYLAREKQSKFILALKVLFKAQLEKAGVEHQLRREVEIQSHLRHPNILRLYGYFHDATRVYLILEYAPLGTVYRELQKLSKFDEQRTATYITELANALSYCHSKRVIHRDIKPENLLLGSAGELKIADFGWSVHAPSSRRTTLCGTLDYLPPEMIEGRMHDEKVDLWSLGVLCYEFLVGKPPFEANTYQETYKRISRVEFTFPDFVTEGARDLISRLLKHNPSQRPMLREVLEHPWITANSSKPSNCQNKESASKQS
The experiment in a line: co-immunoprecipitation from MDA-MB-436 lysate with anti-PRR11 antibody on CNBr sepharose, Western blot. The source says:
Pelleted cells were lysed using lysis buffer (commercial Bio-Rad) and estimated proteins (Bio-Rad protein assay) and loaded equal amount of protein and separated by SDS-PAGE [28-30]. After transfer, the membranes were probed with commercial rabbit polyclonal antibodies of Actin, C6orf173, AURKA, MELK and PRR11 (Cell sciences, Sigma Aldrich). Commercial mouse monoclonal antibody available for BRRN1 was obtained from Cell Signalling. Commercial rabbit polyclonal antibody of E2F1 obtained from Thermo Scientific. B-Actin (cell signalling) was used as internal control to relatively compare the expression levels of 6-TAGs genes. Secondary antibodies (anti-rabbit and anti-mouse IgG horseradish peroxidase-conjugated) were purchased from GE Healthcare Bio-Sciences AB. Proteins were visualized using an enhanced chemiluminescence (ECL) reagent kit (GE Healthcare Bio-Sciences AB). Densitometry analysis of Western Blot images was done using ImageJ open source software.
For the immunoprecipiation 5 ug of the antibodies (rabbit anti-PRR11 and mouse anti-BRRN1) were coupled to the CN-Br sepharose 4 Fast Flow according manufacturer protocol (GE Healthcare Bio-Sciences AB) and such supports were used to capture the corresponding proteins from the NP40 cell lysates (usually 1×10^7 MDA-MB-436 cells were used for one probe). […]

B1: Proline rich 11 (PRR11/FLJ11029) (other, UniProt Q96HE9 1-360, looked up)
chain: MPKFKQRRRKLKAKAERLFKKKEASHFQSKLITPPPPPPSPERVGISSIDISQSRSWLTSSWNFNFPNIRDAIKLWTNRVWSIYSWCQNCITQSLEVLKDTIFPSRICHRELYSVKQQFCILESKLCKLQEALKTISESSSCPSCGQTCHMSGKLTNVPACVLITPGDSKAVLPPTLPQPASHFPPPPPPPPLPPPPPPLAPVLLRKPSLAKALQAGPLKKDGPMQITVKDLLTVKLKKTQSLDEKRKLIPSPKARNPLVTVSDLQHVTLKPNSKVLSTRVTNVLITPGKSQMDLRKLLRKVDVERSPGGTPLTNKENMETGTGLTPVMTQALRRKFQLAHPRSPTPTLPLSTSSFDEQN
notes: also called endogenous PRR11
In the case of B1, the binding result is “no binding”.
